Results from patent publication US20110076342A1.
Non-standard residues stand in square brackets, D forms with d. No end group written: not given here.

target: full length PCNA's binding partners; assay: cell-based or functional assay

Binder | % cancer cell death, U937 cells, 30 µM peptide, 24 h, flow cytometry [%] | % Dead Cells, MCF 7 (breast cancer) cells, 50 µM R9-caPeptide, 48 h, flow cytometry [%] | % Dead Cells, MCF 10A (non-malignant) breast cells, 50 µM R9-caPeptide, 48 h, flow cytometry [%] | apoptotic cells, U937 cells, 50 uM R9-caPep [%]
RRRRRRRRRCCLGAPEQEY [R9-L128A] | 21 |  |  | 
RRRRRRRRRCCLGIPEQEA [R9-L133A] | 7 |  |  | 
RRRRRRRRRCCLAIPEQEY [R9-L127A] | 47 |  |  | 
[dR][dR][dR][dR][dR][dR][dR][dR][dR]CCLGIPEQEY (cysteine pairing not given here) [R9-caPep (D-nonaarginine linked caPeptide, …)] | 43 | 91.5 | 18.2 | 93
RRRRRRRRRCCLGIAEQEY [R9-L129A] | 80 |  |  | 
RRRRRRRRRCCLGIPEAEY [R9-L131A] | 93 |  |  | 
RRRRRRRRRCCLGIPEQAY [R9-L132A] | 88 |  |  | 
RRRRRRRRRCCLGIPAQEY [R9-L130A] | 45 |  |  | 
RRRRRRRRRCCAGIPEQEY [R9-L126A] | 8 |  |  | 
